These results are taken from article PMC7828395, “Mapping the DNA-Binding Motif of Scabin Toxin, a Guanine Modifying Enzyme from Streptomyces scabies” (Toxins, 2021).

A value given as a limit tells only on which side of the number the result lay.

The series deals with Nc1nc2c(ncn2[C@@H]2O[C@H](COP(=O)(O)O)[C@@H](O)[C@H]2O)c(=O)[nH]1. Put plainly: purified protein. The note with it: pH 7.9.

Usually kcat stands for the number of substrate molecules converted per active site and unit of time at saturation. As to (Streptomyces scabiei 87.22), the K0.5 was determined as 289 ± 18 µM and the kcat is more than 3 s⁻¹.
